Measured values published in PMC5339705, “OGG1-DNA interactions facilitate NF-κB binding to DNA targets”.

Key:
[1] = target: OGG1 (UniProt O15527 1-345); assay: EMSA; OGG1 alone; more complex when NF-kB present; 10 mM Tris-HCl pH 8.0, 5 mM NaCl, 1 mM EDTA, 1 mM DTT, 0.1 mg/ml BSA, 0.1 µg/µl poly(dI-dC) (stated for NE reactions), 10 fmol probe, 10 µl, RT 5-10 min; 6% gel 0.5x TBE 4 °C; conditions: protein: commercial; label: 5' biotin on strand 2; blunt
[2] = target: T1, p50 (NF-kB1) (UniProt P19838 1-433); assay: EMSA; p50 alone; mildly enhanced by 1 ng OGG1; 10 mM Tris-HCl pH 8.0, 5 mM NaCl, 1 mM EDTA, 1 mM DTT, 0.1 mg/ml BSA, 0.1 µg/µl poly(dI-dC) (stated for NE reactions), 10 fmol probe, 10 µl, RT 5-10 min; 6% gel 0.5x TBE 4 °C; conditions: protein: commercial; chain copies: 2; label: 5' biotin on strand 2; blunt
[3] = target: p65 (RelA) (UniProt Q04206 1-551); assay: EMSA; 15 ng p65 (also 7.5 ng series) with OGG1; 10 mM Tris-HCl pH 8.0, 5 mM NaCl, 1 mM EDTA, 1 mM DTT, 0.1 mg/ml BSA, 0.1 µg/µl poly(dI-dC) (stated for NE reactions), 10 fmol probe, 10 µl, RT 5-10 min; 6% gel 0.5x TBE 4 °C; conditions: protein: commercial; chain copies: 2; label: 5' biotin on strand 2; blunt
[4] = target: T1, p50 (NF-kB1); assay: EMSA; homodimer formed in p65/p50 mix, no OGG1; from 1 min; 10 mM Tris-HCl pH 8.0, 5 mM NaCl, 1 mM EDTA, 1 mM DTT, 0.1 mg/ml BSA, 0.1 µg/µl poly(dI-dC) (stated for NE reactions), 10 fmol probe, 10 µl, RT 5-10 min; 6% gel 0.5x TBE 4 °C; conditions: protein: commercial; chain copies: 2; label: 5' biotin on strand 2; blunt

T1 sequence (P19838 1-433): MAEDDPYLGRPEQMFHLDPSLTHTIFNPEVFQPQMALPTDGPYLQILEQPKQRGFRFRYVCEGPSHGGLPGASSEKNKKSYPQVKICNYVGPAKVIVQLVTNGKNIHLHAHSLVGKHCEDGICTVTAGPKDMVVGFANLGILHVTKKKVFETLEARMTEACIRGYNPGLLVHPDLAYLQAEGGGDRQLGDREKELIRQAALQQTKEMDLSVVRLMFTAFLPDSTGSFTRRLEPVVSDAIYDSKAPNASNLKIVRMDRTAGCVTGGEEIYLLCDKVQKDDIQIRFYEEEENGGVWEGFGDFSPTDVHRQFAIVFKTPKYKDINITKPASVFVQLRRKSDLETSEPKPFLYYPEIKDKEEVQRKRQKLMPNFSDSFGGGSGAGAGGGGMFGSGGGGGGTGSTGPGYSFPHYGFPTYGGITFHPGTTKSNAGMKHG
Chain of p65 (RelA) (Q04206 whole entry): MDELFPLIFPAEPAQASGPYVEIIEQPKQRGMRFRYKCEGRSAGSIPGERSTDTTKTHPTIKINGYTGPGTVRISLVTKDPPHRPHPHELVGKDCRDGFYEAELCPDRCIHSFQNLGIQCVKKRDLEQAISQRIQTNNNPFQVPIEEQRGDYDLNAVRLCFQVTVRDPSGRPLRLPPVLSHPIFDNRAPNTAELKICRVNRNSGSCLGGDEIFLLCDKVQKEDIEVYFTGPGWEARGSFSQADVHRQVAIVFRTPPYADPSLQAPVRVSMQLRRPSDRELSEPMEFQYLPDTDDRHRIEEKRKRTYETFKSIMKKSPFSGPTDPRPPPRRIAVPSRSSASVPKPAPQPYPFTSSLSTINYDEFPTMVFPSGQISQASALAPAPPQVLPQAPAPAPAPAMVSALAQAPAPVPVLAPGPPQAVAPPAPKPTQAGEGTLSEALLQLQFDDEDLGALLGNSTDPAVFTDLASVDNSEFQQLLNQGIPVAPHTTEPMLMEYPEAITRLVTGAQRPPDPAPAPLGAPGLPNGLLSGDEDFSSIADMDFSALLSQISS
Chain of OGG1 (O15527 whole entry): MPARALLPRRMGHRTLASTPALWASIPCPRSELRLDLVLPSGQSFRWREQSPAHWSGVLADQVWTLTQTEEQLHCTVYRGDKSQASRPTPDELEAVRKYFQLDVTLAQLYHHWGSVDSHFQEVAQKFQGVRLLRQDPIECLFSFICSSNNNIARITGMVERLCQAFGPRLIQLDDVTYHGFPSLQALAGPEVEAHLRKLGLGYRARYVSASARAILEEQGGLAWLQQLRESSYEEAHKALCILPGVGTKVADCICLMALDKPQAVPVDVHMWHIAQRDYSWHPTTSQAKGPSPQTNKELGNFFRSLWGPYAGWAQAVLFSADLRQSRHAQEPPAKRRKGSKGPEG

B1: κB2-G6 (dsDNA)
DNA 1: TGAGGGGACCCTGAGCTCAGGGAATTTCCCTGG
DNA 2: CCAGGGAAATTCCCTGAGCTCAGGGTCCCCTCA
modifications: 8-oxoG at strand 2 position 23 (opposite C11 of strand 1)
binding result [1]: binds | binding result [2]: binds | binding signal [3]: > 10 fold vs p65 alone

B2: κB2-Wt (dsDNA)
DNA 1: TGAGGGGACCCTGAGCTCAGGGAATTTCCCTGG
DNA 2: CCAGGGAAATTCCCTGAGCTCAGGGTCCCCTCA
binding result [4]: binds
